In US20200157212A1 (Pfizer, published 2020):
Numbering of substitutions follows the chain as printed.

B1: Abcs35-F (antibody, human IgG1, kappa)
heavy: QVQLVQSGAEVKKPGASVKVSCKASGYTFTGYYMHWVRQAPGQGLEWMGWINPKNGDTEFPQKFQGRVTMTRDTSISTAYMDLSRLRSDDTAVYYCARESGDDAFDIWGQGTMVTVSSASTKGPSVFPLAPSSKSTSGGTAALGCLVKDYFPEPVTVSWNSGALTSGVHTFPAVLQSSGLYSLSSVVTVPSSSLGTQTYICNVNHKPSNTKVDKKVEPKSCDKTHTCPPCPAPEAAGAPSVFLFPPKPKDTLMISRTPEVTCVVVDVSHEDPEVKFNWYVDGVEVHNAKTKPREEQYNSTYRVVSVLTVLHQDWLNGKEYKCKVSNKALPAPIEKTISKAKGQPREPQVYTLPPSREEMTKNQVSLTCLVKGFYPSDIAVEWESNGQPENNYKTTPPVLDSDGSFFLYSKLTVDKSRWQQGNVFSCSVMHEALHNHYTQKSLSLSPGK
light: DIVMTQSPSSLSASVGDRVTITCRASQSISSYLNWYQQKPGKAPKLLIYAASSLQSGVPSRFSGSGSGTDFTLTISSLQPEDFATYYCQQSVGLFFGGGTKVEIKRTVAAPSVFIFPPSDEQLKSGTASVVCLLNNFYPREAKVQWKVDNALQSGNSQESVTEQDSKDSTYSLSSTLTLSKADYEKHKVYACEVTHQGLSSPVTKSFNRGEC
notes: germlined variant of Abcs35
B2: Abcs35-M (antibody, human IgG1, kappa)
heavy: B1 heavy
light: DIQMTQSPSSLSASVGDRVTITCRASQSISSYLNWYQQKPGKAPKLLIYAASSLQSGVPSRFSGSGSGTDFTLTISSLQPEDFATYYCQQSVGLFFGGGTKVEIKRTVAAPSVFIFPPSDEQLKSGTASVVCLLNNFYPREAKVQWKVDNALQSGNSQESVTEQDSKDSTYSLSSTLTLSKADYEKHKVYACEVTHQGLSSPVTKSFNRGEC
notes: germlined variant of Abcs35
B3: Abcs35-H (antibody, human IgG1, kappa)
heavy: B1 heavy with D82E
light: B1 light
notes: germlined variant of Abcs35
B4: Abcs35-I (antibody, human IgG1, kappa)
heavy: B1 heavy with Q1E
light: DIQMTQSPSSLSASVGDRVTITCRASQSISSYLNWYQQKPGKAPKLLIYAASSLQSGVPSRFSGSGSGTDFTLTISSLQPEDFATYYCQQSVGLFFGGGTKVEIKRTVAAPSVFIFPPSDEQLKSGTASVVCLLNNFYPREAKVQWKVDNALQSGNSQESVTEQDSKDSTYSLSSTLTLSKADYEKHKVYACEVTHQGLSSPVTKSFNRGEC
notes: germlined variant of Abcs35
B5: Abcs35-O (antibody, human IgG1, kappa)
heavy: B1 heavy with D82E
light: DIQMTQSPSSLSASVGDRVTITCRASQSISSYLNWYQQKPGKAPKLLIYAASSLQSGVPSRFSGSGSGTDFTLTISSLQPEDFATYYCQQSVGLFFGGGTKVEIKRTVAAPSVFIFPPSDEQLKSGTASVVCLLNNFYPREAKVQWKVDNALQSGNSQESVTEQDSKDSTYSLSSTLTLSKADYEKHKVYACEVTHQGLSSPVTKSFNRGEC
notes: germlined variant of Abcs35
B6: Abcs35-L (antibody, human IgG1, kappa)
heavy: B1 heavy with S77T
light: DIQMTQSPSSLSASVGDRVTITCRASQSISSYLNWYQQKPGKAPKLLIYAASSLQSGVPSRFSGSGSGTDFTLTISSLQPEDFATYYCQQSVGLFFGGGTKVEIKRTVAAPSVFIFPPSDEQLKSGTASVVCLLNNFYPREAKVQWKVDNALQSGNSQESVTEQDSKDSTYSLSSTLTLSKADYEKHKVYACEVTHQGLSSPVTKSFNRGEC
notes: germlined variant of Abcs35
B7: Abcs35-K (antibody, human IgG1, kappa)
heavy: B1 heavy with Q1E, D82E
light: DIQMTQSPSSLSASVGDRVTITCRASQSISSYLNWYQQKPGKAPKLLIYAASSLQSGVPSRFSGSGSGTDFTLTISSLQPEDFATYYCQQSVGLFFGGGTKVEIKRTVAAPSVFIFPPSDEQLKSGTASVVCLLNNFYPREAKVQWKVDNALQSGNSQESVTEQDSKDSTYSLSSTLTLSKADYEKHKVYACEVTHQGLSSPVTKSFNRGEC
notes: germlined variant of Abcs35
B8: Abcs35-G (antibody, human IgG1, kappa)
heavy: B1 heavy with S77T, D82E
light: B1 light
notes: germlined variant of Abcs35
B9: Abcs35-N (antibody, human IgG1, kappa)
heavy: B1 heavy with S77T, D82E
light: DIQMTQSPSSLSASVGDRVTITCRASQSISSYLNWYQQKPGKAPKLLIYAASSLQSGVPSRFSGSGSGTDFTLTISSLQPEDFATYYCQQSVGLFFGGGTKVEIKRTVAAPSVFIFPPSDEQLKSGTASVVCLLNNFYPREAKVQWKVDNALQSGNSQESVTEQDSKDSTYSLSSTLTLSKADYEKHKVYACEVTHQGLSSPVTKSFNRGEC
notes: germlined variant of Abcs35

molecular target: T1, Human ROBO2 Ig1-Ig2-His (human, UniProt Q9HCK4 31-220); test: SPR, antibody on CM5 chip, ROBO2 Ig1-Ig2-His
T1 construct: the His tag is named only in the SPR paragraphs; the Octet and ELISA paragraphs print 'ROBO2 Ig1-Ig2' without a tag; also called ROBO2 Ig1-2; Human ROBO2 Ig 1,2
T1 sequence: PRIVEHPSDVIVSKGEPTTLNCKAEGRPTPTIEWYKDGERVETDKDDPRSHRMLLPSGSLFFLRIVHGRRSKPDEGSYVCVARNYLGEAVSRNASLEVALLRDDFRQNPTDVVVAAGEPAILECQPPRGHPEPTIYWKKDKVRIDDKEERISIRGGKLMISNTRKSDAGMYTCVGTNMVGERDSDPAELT
Procedure: Based upon several criteria, Abcs25 and Abcs35 were selected for further characterization. Using flow cytometry, improvement in the binding EC₅₀ to human ROBO2 relative to the parental 93H2 was evaluated. Starting at 6.7 nM, 11-point, 3-fold dilution series were made for each antibody and used to stain HEK293 overexpressing human ROBO2 as described above for the ROBO2 fold selectivity (Example 2). […] In addition to measuring improved binding to human ROBO2, it was important to ensure that high affinity binding to both cynomolgus monkey ROBO2 and rat ROBO2 was maintained. Using HEK293 cells overexpressing either cynomolgus monkey ROBO2 or rat ROBO2, the relative dose-dependent binding of 93H2, Abcs25 and Abcs35 was evaluated as described above. High affinity binding to both cynomolgus monkey and rat ROBO2 was maintained in Abcs25 and Abcs35 (Table 4). […] Briefly, Abcs35 was immobilized to 300 resonance units (RU) on a CM5 chip. Association of ROBO2 Ig1-Ig2-His (ROBO2) was measured over 5 minutes and dissociation was followed for a period of 10 minutes.
Affinity was measured by standard SPR methods as described in Example 3. Briefly, antibodies were immobilized to a specific measure of resonance units (RU) on a CM5 chip. Association of ROBO2 Ig1-Ig2-His (ROBO2) and dissociation will be followed for a period of time.

| Binder | Kd |
| --- | --- |
| B1 | 194 pM |
| B2 | 217 pM |
| B3 | 194 pM |
| B4 | 145 pM |
| B5 | 217 pM |
| B6 | 149 pM |
| B7 | 142 pM |
| B8 | 131 pM |
| B9 | 146 pM |

molecular target: T2, Terbium (Tb) labeled-SNAP tagged ROBO2 expressed on HEK293 cells (Homo sapiens (Human), UniProt Q9HCK4 22-1378, terbium label on the SNAP tag); test: HTRF competition, competitor d2-SLIT2-N, ROBO2 HEK293 cells
T2 construct: also called Tb-labeled ROBO2 cells; ROBO2 expressing cells; not shown: SNAP tag
T2 sequence: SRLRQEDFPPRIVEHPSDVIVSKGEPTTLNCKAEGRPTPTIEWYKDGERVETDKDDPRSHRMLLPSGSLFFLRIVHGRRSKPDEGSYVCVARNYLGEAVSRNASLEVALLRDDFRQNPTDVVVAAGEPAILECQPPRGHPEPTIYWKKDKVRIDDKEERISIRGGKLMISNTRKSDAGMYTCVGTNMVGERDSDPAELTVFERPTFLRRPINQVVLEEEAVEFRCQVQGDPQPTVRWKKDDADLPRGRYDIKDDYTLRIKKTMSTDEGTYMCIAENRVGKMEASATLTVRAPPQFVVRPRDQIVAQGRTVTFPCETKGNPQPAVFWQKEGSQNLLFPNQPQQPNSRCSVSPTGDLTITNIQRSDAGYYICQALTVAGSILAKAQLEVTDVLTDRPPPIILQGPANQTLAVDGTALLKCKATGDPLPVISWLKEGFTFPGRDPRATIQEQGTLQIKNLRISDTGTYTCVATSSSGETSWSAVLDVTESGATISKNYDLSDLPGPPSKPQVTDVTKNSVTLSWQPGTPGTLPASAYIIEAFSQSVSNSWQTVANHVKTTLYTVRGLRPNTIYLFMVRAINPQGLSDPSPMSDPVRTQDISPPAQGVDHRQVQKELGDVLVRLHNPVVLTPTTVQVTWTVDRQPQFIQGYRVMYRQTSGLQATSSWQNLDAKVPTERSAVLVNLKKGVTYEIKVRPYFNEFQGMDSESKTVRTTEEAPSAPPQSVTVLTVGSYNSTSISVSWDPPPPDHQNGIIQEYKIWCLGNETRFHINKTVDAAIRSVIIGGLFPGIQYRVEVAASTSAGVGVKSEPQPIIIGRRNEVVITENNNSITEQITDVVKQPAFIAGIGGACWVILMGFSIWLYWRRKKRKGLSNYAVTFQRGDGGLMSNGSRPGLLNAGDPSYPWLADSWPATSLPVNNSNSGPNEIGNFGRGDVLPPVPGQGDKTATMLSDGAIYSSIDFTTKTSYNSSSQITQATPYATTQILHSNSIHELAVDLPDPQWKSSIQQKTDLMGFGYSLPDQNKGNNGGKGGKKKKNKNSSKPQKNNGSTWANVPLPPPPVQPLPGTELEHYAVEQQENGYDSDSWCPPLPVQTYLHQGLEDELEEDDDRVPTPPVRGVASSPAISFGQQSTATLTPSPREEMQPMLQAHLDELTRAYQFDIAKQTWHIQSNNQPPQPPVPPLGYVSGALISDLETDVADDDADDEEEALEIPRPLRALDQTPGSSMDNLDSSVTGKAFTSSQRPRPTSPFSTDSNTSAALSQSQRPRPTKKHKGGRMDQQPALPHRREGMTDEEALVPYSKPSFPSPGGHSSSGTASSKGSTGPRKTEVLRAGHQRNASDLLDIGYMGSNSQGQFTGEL
Procedure: A ROBO2-SLIT2-N homogenous time resolved fluorescence (HTRF) assay was used to identify antibodies that were capable of blocking SLIT2-N binding to ROBO2. In this assay, terbium (Tb) labeled-SNAP tagged ROBO2 expressing HEK293 cells were incubated with 5 nM d2-labeled SLIT-2N in the presence of 1 nM anti-ROBO2 antibodies for 1 hour. After incubation, fluorescence at 665 nm and 620 nm was measured on an Envision multilabel plate reader. […] Maximal signal was defined as the HTRF ratio of Tb-labeled ROBO2 cells with d2-labeled SLIT2-N in the absence of antibody, the minimum signal was defined as the HTRF ratio of Tb-labeled ROBO2 expressing HEK293 cells only. One nanomolar (nM) parental antibody, 93H2, was unable to block the HTRF assay, therefore this concentration was selected to identify clones with a higher affinity than 93H2 (Table 2, HTRF Ratio column). […] Antibodies derived from chain (Abcs series) or CDR shuffling (CTIR-2 series) were evaluated in 11-point, 5-fold dilution series with a top concentration of 1500 nM (Table 2 HTRF IC₅₀).
Neutralization of SLIT2-N binding to ROBO2 was assessed ROBO2:SLIT2-N homogenous time resolved fluorescence (HTRF) assay as described in Example 2. Briefly the HTRF assay was performed as follows: terbium (Tb) labeled-SNAP tagged ROBO2 expressing HEK293 cells were incubated with d2-labeled SLIT-2N in the presence of anti-ROBO2 antibodies for 1 hour. After incubation, fluorescence at 665 nm and 620 nm was measured on an Envision multi-label plate reader. […] Maximal signal was defined as the HTRF ratio of Tb-labeled ROBO2 cells with d2-labeled SLIT2-N in the absence of antibody, the minimum signal was defined as the HTRF ratio of Tb-labeled ROBO2 expressing HEK293 cells only.

| Binder | IC50 |
| --- | --- |
| B1 | 76.6 pM |
| B2 | 59.1 pM |
| B3 | 82.9 pM |
| B4 | 74.5 pM |
| B5 | 62.4 pM |
| B6 | 79.6 pM |
| B7 | 75.2 pM |
| B8 | 75.4 pM |
| B9 | 90.3 pM |
